Experimental data published in patent US10851401B2, “Broth microdilution method for evaluating and determining minimal inhibitory concentration of antibacterial polypeptides” (priority 2016, dated 2020).

Legend:
25 S. aureus strains = assay: BMD MIC, validation of the horse serum/DTT method with varied sources, conditions and storage
30 S. aureus strains = assay: Broth microdilution (BMD) MIC, identification of new testing conditions, panel of 30 strains
Charge (pI) = format: physicochemical
S. aureus strains = assay: Standard BMD susceptibility testing, broth versus human blood/serum/plasma; format: cell-based
From the text: The supplementation with DTT serves to stabilize lysin polypeptide and enable the use of frozen micro broth dilution panels for MIC determination. DTT is a common reducing agent used to prevent the oxidation and inactivation of enzymes during storage or in the context of in vitro assays.

S. aureus ATCC 700699 = assay: BMD MIC assay of a single strain in CA-MHB, human blood matrices and supplemented broth
[1] = clinical grade, recombinantly produced in E. coli; cited from earlier work
[2] = oxidation and inactivation of active-site cysteine thiol in MHB
[3] = MIC assays under different conditions (FIG. 7)
MRSA strain ATCC 29213 = assay: MIC assays under different conditions (FIG. 7); details: MHBII alone
[4] = Bacterial inoculum 5 × 10^4 CFU/ml
[5] = Bacterial inoculum 5 × 10^5 CFU/ml (first line, r9)
[6] = Bacterial inoculum 5 × 10^5 CFU/ml (second line, r10)
[7] = Bacterial inoculum 5 × 10^6 CFU/ml
[8] = CAMHB source BBL BD (Powder), Freeze/Thaw no
[9] = CAMHB source BBL BD (Powder), Freeze/Thaw yes
[10] = CAMHB source BD (Liquid), Freeze/Thaw no
[11] = CAMHB source BD (Liquid), Freeze/Thaw yes
[12] = CAMHB source Sigma-Aldrich (Powder), Freeze/Thaw no
[13] = CAMHB source Sigma-Aldrich (Powder), Freeze/Thaw yes
[14] = CAMHB source Teknova (Liquid), Freeze/Thaw no
[15] = CAMHB source Teknova (Liquid), Freeze/Thaw yes
[16] = DTT source G-Biosciences (powder), Freeze/Thaw no
[17] = DTT source G-Biosciences (powder), Freeze/Thaw yes
[18] = DTT source Sigma (liquid), Freeze/Thaw no
[19] = DTT source Sigma (liquid), Freeze/Thaw yes
[20] = DTT source Sigma (powder), Freeze/Thaw no
[21] = DTT source Sigma (powder), Freeze/Thaw yes
[22] = Incubation condition: 5% CO^2 (37° C.)
[23] = Incubation condition: Ambient air (30° C.)
[24] = Incubation condition: Ambient air (37° C.)
[25] = horse serum/DTT method, reference value for the modifications tested
[26] = panels stored at −80° C. for 1 day
[27] = panels stored at −80° C. for 3 days
[28] = panels stored at −80° C. for 7 days
[29] = panels stored at −80° C. for 14 days
[30] = panels stored at −80° C. for 60 days
[31] = panels stored at −80° C. for 90 days
[32] = panels stored at −80° C. for 120 days
[33] = panels stored at −80° C. for 180 days
[34] = panels stored at −80° C. for 365 days
[35] = 100% Human Serum, Fresh dilutions
[36] = CAMHB, 0.5 mM DTT, Fresh dilutions
[37] = CAMHB, 25% horse serum, 0.5 mM DTT, Fresh dilutions
[38] = CAMHB, 25% horse serum, 0.5 mM DTT, Thawed
[39] = CAMHB, 25% horse serum, Fresh dilutions

B1: CF-301: bacteriophage lysin polypeptide derived from a Streptococcus suis prophage, amino acid sequence of FIG. 1 / SEQ ID NO: 1; 26 kDa bacteriolytic enzyme (protein, listed as Streptococcus suis)
chain: MTTVNEALNNVRAQVGSGVSVGNGECYALASWYERMISPDATVGLGAGVGWVSGAIGDTISAKNIGSSYNWQANGWTVSTSGPFKAGQIVTLGATPGNPYGHVVIVEAVDGDRLTILEQNYGGKRYPVRNYYSAASYRQQVVHYITPPGTVAQSAPNLAGSRSYRETGTMTVTVDALNVRRAPNTSGEIVAVYKRGESFDYDTVIIDVNGYVWVSYIGGSGKRNYVATGATKDGKRFGNAWGTFK
MIC50 (25 S. aureus strains; [4]): 0.5 µg/mL | MIC90 (25 S. aureus strains; [4]): 1 µg/mL | Range (25 S. aureus strains; [4]): 0.25 to 1 µg/mL | MIC50 (25 S. aureus strains; [5]): 0.5 µg/mL | MIC90 (25 S. aureus strains; [5]): 1 µg/mL | Range (25 S. aureus strains; [5]): 0.25 to 2 µg/mL | MIC50 (25 S. aureus strains; [6]): 0.5 µg/mL | MIC90 (25 S. aureus strains; [6]): 1 µg/mL | Range (25 S. aureus strains; [6]): 0.25 to 2 µg/mL | MIC50 (25 S. aureus strains; [7]): 0.5 µg/mL | MIC90 (25 S. aureus strains; [7]): 1 µg/mL | Range (25 S. aureus strains; [7]): 0.25 to 1 µg/mL | MIC50 (25 S. aureus strains; [8]): 0.5 µg/mL | MIC90 (25 S. aureus strains; [8]): 1 µg/mL | Range (25 S. aureus strains; [8]): 0.25 to 2 µg/mL | MIC50 (25 S. aureus strains; [9]): 0.5 µg/mL | MIC90 (25 S. aureus strains; [9]): 1 µg/mL | Range (25 S. aureus strains; [9]): 0.25 to 2 µg/mL | MIC50 (25 S. aureus strains; [10]): 0.5 µg/mL | MIC90 (25 S. aureus strains; [10]): 1 µg/mL | Range (25 S. aureus strains; [10]): 0.25 to 1 µg/mL | MIC50 (25 S. aureus strains; [11]): 0.5 µg/mL | MIC90 (25 S. aureus strains; [11]): 1 µg/mL | Range (25 S. aureus strains; [11]): 0.25 to 1 µg/mL | MIC50 (25 S. aureus strains; [12]): 1 µg/mL | MIC90 (25 S. aureus strains; [12]): 2 µg/mL | Range (25 S. aureus strains; [12]): 0.5 to 2 µg/mL | MIC50 (25 S. aureus strains; [13]): 1 µg/mL | MIC90 (25 S. aureus strains; [13]): 2 µg/mL | Range (25 S. aureus strains; [13]): 0.5 to 2 µg/mL | MIC50 (25 S. aureus strains; [14]): 0.5 µg/mL | MIC90 (25 S. aureus strains; [14]): 1 µg/mL | Range (25 S. aureus strains; [14]): 0.25 to 1 µg/mL | MIC50 (25 S. aureus strains; [15]): 0.5 µg/mL | MIC90 (25 S. aureus strains; [15]): 1 µg/mL | Range (25 S. aureus strains; [15]): 0.25 to 1 µg/mL | MIC (25 S. aureus strains; [16]): 1 µg/mL | MIC50 (25 S. aureus strains; [16]): 0.5 µg/mL | Range (25 S. aureus strains; [16]): 0.25 to 2 µg/mL | MIC (25 S. aureus strains; [17]): 1 µg/mL | MIC50 (25 S. aureus strains; [17]): 0.5 µg/mL | Range (25 S. aureus strains; [17]): 0.25 to 2 µg/mL | MIC (25 S. aureus strains; [18]): 1 µg/mL | MIC50 (25 S. aureus strains; [18]): 0.5 µg/mL | Range (25 S. aureus strains; [18]): 0.25 to 2 µg/mL | MIC (25 S. aureus strains; [19]): 1 µg/mL | MIC50 (25 S. aureus strains; [19]): 0.5 µg/mL | Range (25 S. aureus strains; [19]): 0.25 to 2 µg/mL | MIC (25 S. aureus strains; [20]): 1 µg/mL | MIC50 (25 S. aureus strains; [20]): 0.5 µg/mL | Range (25 S. aureus strains; [20]): 0.25 to 2 µg/mL | MIC (25 S. aureus strains; [21]): 1 µg/mL | MIC50 (25 S. aureus strains; [21]): 0.5 µg/mL | Range (25 S. aureus strains; [21]): 0.25 to 2 µg/mL | MIC50 (25 S. aureus strains; Final pH: Adjusted to pH 7.0): 0.5 µg/mL | MIC90 (25 S. aureus strains; Final pH: Adjusted to pH 7.0): 1 µg/mL | Range (25 S. aureus strains; Final pH: Adjusted to pH 7.0): 0.25 to 2 µg/mL | MIC50 (25 S. aureus strains; Final pH: Adjusted to pH 8.0): 1 µg/mL | MIC90 (25 S. aureus strains; Final pH: Adjusted to pH 8.0): 1 µg/mL | Range (25 S. aureus strains; Final pH: Adjusted to pH 8.0): 0.25 to 2 µg/mL | MIC50 (25 S. aureus strains; Final pH: Unadjusted (pH 7.4)): 0.5 µg/mL | MIC90 (25 S. aureus strains; Final pH: Unadjusted (pH 7.4)): 1 µg/mL | Range (25 S. aureus strains; Final pH: Unadjusted (pH 7.4)): 0.25 to 2 µg/mL | MIC50 (25 S. aureus strains; [22]): 0.5 µg/mL | MIC90 (25 S. aureus strains; [22]): 1 µg/mL | Range (25 S. aureus strains; [22]): 0.25 to 2 µg/mL | MIC50 (25 S. aureus strains; [23]): 0.5 µg/mL | MIC90 (25 S. aureus strains; [23]): 1 µg/mL | Range (25 S. aureus strains; [23]): 0.25 to 1 µg/mL | MIC50 (25 S. aureus strains; [24]): 0.5 µg/mL | MIC90 (25 S. aureus strains; [24]): 1 µg/mL | Range (25 S. aureus strains; [24]): 0.25 to 2 µg/mL | effect of prolonged incubation of panels at −80° C. on MIC (25 S. aureus strains; assayed up to 365 days): no significant effect | MIC50 (25 S. aureus strains; [25]): 0.5 µg/mL | MIC90 (25 S. aureus strains; [25]): 1 µg/mL | MIC range (25 S. aureus strains; [25]): 0.25 to 2 µg/mL | MIC^50 (25 S. aureus strains; [26]): 0.5 | MIC^90 (25 S. aureus strains; [26]): 0.5 | Range (25 S. aureus strains; [26]): 0.25-1 | MIC^50 (25 S. aureus strains; [27]): 0.5 | MIC^90 (25 S. aureus strains; [27]): 1 | Range (25 S. aureus strains; [27]): 0.25-2 | MIC^50 (25 S. aureus strains; [28]): 0.5 | MIC^90 (25 S. aureus strains; [28]): 0.5 | Range (25 S. aureus strains; [28]): 0.25-1 | MIC^50 (25 S. aureus strains; [29]): 0.5 | MIC^90 (25 S. aureus strains; [29]): 1 | Range (25 S. aureus strains; [29]): 0.25-2 | MIC^50 (25 S. aureus strains; [30]): 0.5 | MIC^90 (25 S. aureus strains; [30]): 0.5 | Range (25 S. aureus strains; [30]): 0.25-2 | MIC^50 (25 S. aureus strains; [31]): 0.5 | MIC^90 (25 S. aureus strains; [31]): 1 | Range (25 S. aureus strains; [31]): 0.25-2 | MIC^50 (25 S. aureus strains; [32]): 0.5 | MIC^90 (25 S. aureus strains; [32]): 1 | Range (25 S. aureus strains; [32]): 0.25-2 | MIC^50 (25 S. aureus strains; [33]): 0.5 | MIC^90 (25 S. aureus strains; [33]): 0.5 | Range (25 S. aureus strains; [33]): 0.25-1 | MIC^50 (25 S. aureus strains; [34]): 0.5 | MIC^90 (25 S. aureus strains; [34]): 0.5 | Range (25 S. aureus strains; [34]): 0.25-2 | Range (30 S. aureus strains; [35]): 0.125-2 | Trailing (30 S. aureus strains; [35]): none | MIC50 (30 S. aureus strains; [36]): 128 | MIC90 (30 S. aureus strains; [36]): 128 | Range (30 S. aureus strains; [36]): 8-256 | Trailing (30 S. aureus strains; [36]): strong | MIC50 (30 S. aureus strains; CAMHB, 0.5 mM DTT, Thawed): 128 | MIC90 (30 S. aureus strains; CAMHB, 0.5 mM DTT, Thawed): 256 | Trailing (30 S. aureus strains; CAMHB, 0.5 mM DTT, Thawed): strong | MIC50 (30 S. aureus strains; [37]): 0.5 | MIC90 (30 S. aureus strains; [37]): 1 | Range (30 S. aureus strains; [37]): 0.25-2 | Trailing (30 S. aureus strains; [37]): none | MIC50 (30 S. aureus strains; [38]): 0.5 | MIC90 (30 S. aureus strains; [38]): 1 | Range (30 S. aureus strains; [38]): 0.25-2 | Trailing (30 S. aureus strains; [38]): none | Range (30 S. aureus strains; [39]): 0.5-4 | Trailing (30 S. aureus strains; [39]): none | Range (30 S. aureus strains; CAMHB, 25% horse serum, Thawed): 0.5-8 | Trailing (30 S. aureus strains; CAMHB, 25% horse serum, Thawed): none | Range (30 S. aureus strains; CAMHB, Fresh dilutions): 2-128 | Trailing (30 S. aureus strains; CAMHB, Fresh dilutions): strong | Trailing (30 S. aureus strains; CAMHB, Thawed (frozen-thawed dilution panels)): strong | pI (Charge (pI)): 9.2 | MIC90 (S. aureus strains; CA-MHB): 64 µg/mL | S. aureus strains showing trailing (or Eagle) effect (S. aureus strains; broth microdilution (BMD)): ~70% | MIC90 (S. aureus strains; human blood/serum/plasma): 1 µg/mL | MIC (S. aureus ATCC 700699; human blood): 1 µg/mL | MIC (S. aureus ATCC 700699; standard conditions, CA-MHB / MHBII): 64 µg/mL | pH range of activity [1]: 6-9.7 pH | temperature range of activity [1]: 16-55 °C | half-life in MHB [2]: ~5 h | MIC ([3]; 100% human serum): 1 µg/mL | MIC ([3]; MHBII alone): 16 µg/mL | trailing effect (MRSA strain ATCC 29213): slight trailing effect
